The values below come from patent US20230272055A1, “ANTI-MUTANT CALRETICULIN (CALR) ANTIBODIES AND USES THEREOF” (Incyte Corporation, priority 2021, published 2023).

Where only a bound is given, the exact number is not on record here.

The target of assay [1] is Human Type 1 mutCALR (human). Nature of the assay: cell-based or functional assay.
Assay [2] concerns the target recombinant Flag tag_GFP_tev_hmutCALR Type 1 (human). Briefly: HTRF competition against the mutCALR/MPL complex.

Regarding AB1: CAL2 antibody, Dianova, the IC50 of inhibition of cell proliferation (BaF3 cells expressing MPL/mutCALR Type 1) in assay [1] is greater than 60 µg/mL.

With CAL2 antibody (Dianova), the concentration at which some signal inhibition was seen in assay [2] was greater than 100 nM.
